Four substances from paper doi:10.1101/2022.05.12.491222 can be followed below.

In general, stoichiometry N refers to a count of units in the complex or per binding partner.

For assay [1], the target named is LARGE1ΔTM (UniProt O95461). The assay is described as follows: SEC-MALS. (In general: In gel filtration, larger molecules generally elute earlier.)
The target in assay [2] is LARGE1ΔTM (UniProt O95461). Description: SAXS.
Assay [3] has as its target LARGE1ΔTM treated with PNGase F (UniProt O95461). The assay is described as follows: SEC-MALS.
For assay [4], the target named is LARGE2ΔTM (UniProt Q8N3Y3). The assay is described as follows: SEC-MALS.
For assay [5], the target named is LARGE2ΔTM (UniProt Q8N3Y3). The assay is described as follows: SAXS.
Assay [6] deals with LARGE2ΔTM treated with PNGase F (UniProt Q8N3Y3). Description: SEC-MALS.

As to “LARGE1ΔTM (from UniProt O95461 34-756) (enzyme)”, the stoichiometry N in assay [1] and in assay [2] was 2 in each case.
With “LARGE1ΔTM treated with PNGase F (from UniProt O95461 34-756) (enzyme)”, the stoichiometry N in assay [3] is 2.
Take “LARGE2ΔTM (from UniProt Q8N3Y3 1-721) (enzyme)”: the stoichiometry N in assay [4] and in assay [5] was 2 each time.
In the case of “LARGE2ΔTM treated with PNGase F (from UniProt Q8N3Y3 1-721) (enzyme)”, the stoichiometry N in assay [6] was 2.
